Measured values published in the supplement of paper PMC10724198.
± gives the standard deviation of the averaged measurements.

What follows are sequences tested on Saccharomyces cerevisiae (assay: protein stability index of tFT-peptide fusion (C-terminal peptide) (PSI (0-1 scale)); higher = more stable (slower turnover)). Conditions: genetic background: wild type; temperature: 30 C.
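Note: PSI is a weighted mean of sequencing reads over stability bins, variants kept only with over 10 reads, mCherry proximal and sfGFP distal, peptide attached via GGGS linker.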

Sequence	protein stability index
LLSLPTTNLMAF	0.484 ± 0.014
LLTLILRIFVLN	0.225 ± 0.024
LLVFFLAIPSLV	0.337 ± 0.031
LLVFSLLYPCLV	0.345 ± 0.021
LLVIAIKVPANS	0.429 ± 0.024
LLVYLYFFFSCS	0.374 ± 0.022
LLYHFCLFFFRE	0.513 ± 0.044
LMVLISVMFSLG	0.323 ± 0.022
LMWVFPRVVWLY	0.0903 ± 0.014
LPLHTLLLCPPV	0.493 ± 0.031
LPLVFYCFLLHS	0.4422 ± 0.002
LPVPVLGFPPLA	0.7186 ± 0.0014
LRCCGALPLYAY	0.348 ± 0.018
LRFFYFLHFCIL	0.277 ± 0.03
LRRVHRIKLQVC	0.178 ± 0.094
LRVAWVCISIVA	0.117 ± 0.027
LRVPCPPCCVFV	0.398 ± 0.027

Sequence	protein stability index
LSQPGWFKCCLS	0.42 ± 0.013
LSRFRYFVLTSL	0.261 ± 0.041
LSVSEILAVKCG	0.489 ± 0.012
LTACRYVCFLLF	0.261 ± 0.041
LTFRFGVNPYVF	0.323 ± 0.011
LVLELYRFARFG	0.3197 ± 0.0012
LVLFVVGGWVSL	0.445 ± 0.043
LVSLCYAYPRYC	0.387 ± 0.025
LVVAVLKIIMSS	0.124 ± 0.027
LWFLDYVFICFL	0.382 ± 0.022
LWFRCVRMQACR	0.507 ± 0.032
LWLFIVCWVGCV	0.247 ± 0.033
LWLVSLLVLWLT	0.316 ± 0.018
LWNFYELVVYAM	0.212 ± 0.018
LYLFKVLFFRVF	0.104 ± 0.048
LYYSVIFLFLSW	0.339 ± 0.047

The sequences below were run on Saccharomyces cerevisiae in the same assay as above. Conditions: genetic background: cdc34-1; temperature: 37 C.
Experimental: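 MPS profiling in S. cerevisiae of the tFT-X12 degron library: putative degron peptides plus stable controls, 12 aa, fused to the C-terminus of a sfGFP-mCherry timer. Cells are FACS-sorted into 8 mCherry/sfGFP bins and deep-sequenced. PSI runs from 0 (unstable) to 1 (stable). Backgrounds are wild type, das1Δ and doa10Δ at 30 °C, and wild type, das1Δ, cdc34-1 and cdc53-1 at 37 °C; 2-3 technical replicates each.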

Sequence	protein stability index
LLSLPTTNLMAF	0.575 ± 0.029
LLTLILRIFVLN	0.304 ± 0.031
LLVFFLAIPSLV	0.286 ± 0.011
LLVFSLLYPCLV	0.324 ± 0.0049
LLVIAIKVPANS	0.489 ± 0.013
LLVYLYFFFSCS	0.309 ± 0.041
LLYHFCLFFFRE	0.521 ± 0.044
LMVLISVMFSLG	0.112 ± 0.0088
LMWVFPRVVWLY	0.123 ± 0.037
LPLHTLLLCPPV	0.447 ± 0.037
LPLVFYCFLLHS	0.49 ± 0.026
LPVPVLGFPPLA	0.703 ± 0.022
LRCCGALPLYAY	0.251 ± 0.038
LRFFYFLHFCIL	0.36 ± 0.033
LRRVHRIKLQVC	0.254 ± 0.06
LRVAWVCISIVA	0.0375 ± 0.005
LRVPCPPCCVFV	0.568 ± 0.049

Sequence	protein stability index
LSQPGWFKCCLS	0.653 ± 0.014
LSRFRYFVLTSL	0.531 ± 0.026
LSVSEILAVKCG	0.559 ± 0.034
LTACRYVCFLLF	0.575 ± 0.019
LTFRFGVNPYVF	0.631 ± 0.034
LVLELYRFARFG	0.636 ± 0.03
LVLFVVGGWVSL	0.35 ± 0.023
LVSLCYAYPRYC	0.646 ± 0.016
LVVAVLKIIMSS	0.13 ± 0.023
LWFLDYVFICFL	0.335 ± 0.017
LWFRCVRMQACR	0.47 ± 0.031
LWLFIVCWVGCV	0.234 ± 0.017
LWLVSLLVLWLT	0.332 ± 0.035
LWNFYELVVYAM	0.046 ± 0.016
LYLFKVLFFRVF	0.122 ± 0.047
LYYSVIFLFLSW	0.255 ± 0.0028

Same assay, conditions: genetic background: cdc53-1; temperature: 37 C

Sequence	protein stability index
LLSLPTTNLMAF	0.61058 ± 0.00044
LLTLILRIFVLN	0.451 ± 0.0055
LLVFFLAIPSLV	0.343 ± 0.02
LLVFSLLYPCLV	0.362 ± 0.017
LLVIAIKVPANS	0.485 ± 0.0072
LLVYLYFFFSCS	0.442 ± 0.045
LLYHFCLFFFRE	0.592 ± 0.037
LMVLISVMFSLG	0.254 ± 0.029
LMWVFPRVVWLY	0.102 ± 0.016
LPLHTLLLCPPV	0.459 ± 0.013
LPLVFYCFLLHS	0.523 ± 0.0057
LPVPVLGFPPLA	0.778 ± 0.018
LRCCGALPLYAY	0.248 ± 0.03
LRFFYFLHFCIL	0.366 ± 0.024
LRRVHRIKLQVC	0.431 ± 0.035
LRVAWVCISIVA	0.0899 ± 0.006
LRVPCPPCCVFV	0.69936 ± 0.0003

Sequence	protein stability index
LSQPGWFKCCLS	0.737 ± 0.05
LSRFRYFVLTSL	0.6913 ± 0.0028
LSVSEILAVKCG	0.584 ± 0.0073
LTACRYVCFLLF	0.644 ± 0.018
LTFRFGVNPYVF	0.748 ± 0.013
LVLELYRFARFG	0.7337 ± 0.0046
LVLFVVGGWVSL	0.474 ± 0.082
LVSLCYAYPRYC	0.685 ± 0.008
LVVAVLKIIMSS	0.201 ± 0.00098
LWFLDYVFICFL	0.347 ± 0.025
LWFRCVRMQACR	0.51569 ± 0.00022
LWLFIVCWVGCV	0.301 ± 0.044
LWLVSLLVLWLT	0.375 ± 0.033
LWNFYELVVYAM	0.0695 ± 0.046
LYLFKVLFFRVF	0.173 ± 0.026
LYYSVIFLFLSW	0.306 ± 0.023

Same assay, conditions: genetic background: das1 deletion; temperature: 30 C

Sequence	protein stability index
LLSLPTTNLMAF	0.49 ± 0.026
LLTLILRIFVLN	0.316 ± 0.028
LLVFFLAIPSLV	0.23 ± 0.037
LLVFSLLYPCLV	0.289 ± 0.031
LLVIAIKVPANS	0.352 ± 0.025
LLVYLYFFFSCS	0.292 ± 0.021
LLYHFCLFFFRE	0.462 ± 0.024
LMVLISVMFSLG	0.149 ± 0.022
LMWVFPRVVWLY	0.244 ± 0.042
LPLHTLLLCPPV	0.37 ± 0.03
LPLVFYCFLLHS	0.394 ± 0.029
LPVPVLGFPPLA	0.664 ± 0.018
LRCCGALPLYAY	0.238 ± 0.038
LRFFYFLHFCIL	0.43 ± 0.018
LRRVHRIKLQVC	0.288 ± 0.029
LRVAWVCISIVA	0.0876 ± 0.023
LRVPCPPCCVFV	0.616 ± 0.016

Sequence	protein stability index
LSQPGWFKCCLS	0.662 ± 0.029
LSRFRYFVLTSL	0.608 ± 0.018
LSVSEILAVKCG	0.429 ± 0.034
LTACRYVCFLLF	0.561 ± 0.017
LTFRFGVNPYVF	0.634 ± 0.019
LVLELYRFARFG	0.643 ± 0.0069
LVLFVVGGWVSL	0.316 ± 0.023
LVSLCYAYPRYC	0.532 ± 0.016
LVVAVLKIIMSS	0.2 ± 0.033
LWFLDYVFICFL	0.33 ± 0.034
LWFRCVRMQACR	0.411 ± 0.019
LWLFIVCWVGCV	0.201 ± 0.019
LWLVSLLVLWLT	0.291 ± 0.033
LWNFYELVVYAM	0.159 ± 0.035
LYLFKVLFFRVF	0.286 ± 0.045
LYYSVIFLFLSW	0.232 ± 0.033
